Drawing on the supplement of paper PMC12042874, this text covers amyloid nucleation score for 140 substances.

± gives the uncertainty stated by the source.

This series is described as follows: amyloid nucleation score (Sup35N fusion, yeast selection) (log enrichment); library NNK1; higher = more nucleation; inactive = no reads after selection. In outline:
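For the nucleation score, DiMSum gave the log enrichment of output over input reads, centred on the mode score of non-aggregating sequences. Psi-negative yeast expressing Sup35N fused to peptides of 20 random codons were induced with 100 μM copper sulfate for 24 hours and grown 7 days at 30°C on medium lacking adenine and uracil. Input and output plasmid inserts were Illumina-sequenced, and sequences with under 100 input reads were excluded.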

DWRNAFLLCYANRNVQTCMS had an amyloid nucleation score of -0.673 ± 0.3.

With PLLQKSWIRALSFFVNHTS, the amyloid nucleation score is 0.126 ± 0.51.

On to LSYLGLLP, for which the amyloid nucleation score came out at 0.373 ± 0.62.

As for MWIPFRVYLRAH, the amyloid nucleation score entry was “inactive”.

Regarding SYSINLPLLPRCN, the amyloid nucleation score was determined as 1.02 ± 0.57.

In turn, FDTGGVRRRCACVSLYGVDV had an amyloid nucleation score of 0.027 ± 0.43.

In turn, SVLWRGIFCFWIAWFV registered an amyloid nucleation score of -1.39 ± 2.4.

For the substance YCDVSTYMSEHTISVAQAQS, the amyloid nucleation score was 0.284 ± 0.41.

Consider NGFQLTILKDHGLVKRQSPR, for which the amyloid nucleation score result is “inactive”.

Turning to CLLLVMTVTGGGSVTMLSQM, the amyloid nucleation score is -0.078 ± 0.32.

With DAYVLD, the amyloid nucleation score is 0.314 ± 0.34.

Substance KMLFGH had an amyloid nucleation score of -0.085 ± 0.79.

In the case of NFVICNVMDRISWLCVCNLH, the amyloid nucleation score amounted to 4.08 ± 0.076.

Substance PFNGSLFYYVSWVKTNYGYY showed an amyloid nucleation score of 0.225 ± 0.93.

ATRFIEESTL yielded an amyloid nucleation score of -0.942 ± 0.68.

With INRHVAMWEDQVLSRLAMWF, the amyloid nucleation score turned out to be 2.53 ± 0.13.

With YIVVCSIRNLGRINLRGSDT, the amyloid nucleation score amounted to 0.056 ± 0.8.

In turn, INTYWAGCIFCRMFGESRLK returned an amyloid nucleation score of 7.253 ± 0.069.

The substance LPFLS registered an amyloid nucleation score of -0.116 ± 0.68.

Regarding NCSMPFETMMKHSRN, the amyloid nucleation score is -0.068 ± 0.53.

DYGIVGAEVKKCLIL returned an amyloid nucleation score of 0.433 ± 0.44.

SWISCASGFFYFWAIF: the amyloid nucleation score was -0.739 ± 0.77.

VINCITRLDVQYRKHTPFAN: the amyloid nucleation score is -0.382 ± 0.3.

Consider AFCNVADCNIRGSWLVRLRR, for which the amyloid nucleation score is 1.21 ± 0.41.

TGRSTSTG: the amyloid nucleation score entry is “inactive”.

For the substance LRDISEH, the amyloid nucleation score is -0.588 ± 0.53.

On to GYFIVALRFSSLVEVNATSC, for which the amyloid nucleation score was 0.658 ± 0.77.

Regarding RHISAAEPQSVESMIAKGN, the amyloid nucleation score is -0.054 ± 0.98.

AHLRCDREDIVESTSECGVG: the amyloid nucleation score entry was “inactive”.

CCFNYKSPWSMWFNLRLSNP: the amyloid nucleation score was 5.06 ± 0.071.

CAVHYKLCDLYHT gave an amyloid nucleation score of 0.381 ± 0.5.

In the case of TGLWPMEYSCQCDVVYPVSY, the amyloid nucleation score is -0.051 ± 0.76.

With SNFLFRCSIWDDMGGKCRSK, the amyloid nucleation score result is “inactive”.

For the substance LTWLL, the amyloid nucleation score is 0.992 ± 0.97.

As to VFRTLHSPSVSSGRWSSELS, the amyloid nucleation score is -0.475 ± 0.5.

Turning to EMSINLRNL, the amyloid nucleation score amounted to 0.558 ± 0.16.

For the substance IIAKNTDKVSCTVRVSFL, the amyloid nucleation score is -0.894 ± 1.4.

In turn, DDVVWNYSTA had an amyloid nucleation score of -0.487 ± 0.58.

The substance YKEQGTPHLLYADYEARRDG yielded an amyloid nucleation score of 0.791 ± 0.66.

Turning to SIYSRGSVLANPCSFYAEVR, the amyloid nucleation score result was “inactive”.

For the substance IIQSSTGLWFIIRKVDATYV, the amyloid nucleation score worked out at 0.812 ± 0.28.

As to KSQLRQSTYPS, the amyloid nucleation score is -0.358 ± 0.82.

The substance TEINIASPYWNNSRSGSDMD showed an amyloid nucleation score of 0.238 ± 0.42.

In turn, FNKVSAMDEAREYGVEVVAV yielded an amyloid nucleation score of 5.46 ± 0.073.

With KQSCWALSYVYMTSHVLSGG, the amyloid nucleation score worked out at 0.495 ± 1.4.

The substance GSWYHDRVSLCFFIFDCG displayed an amyloid nucleation score of 4.82 ± 0.076.

VDNIYAGVELLFSCKM had an amyloid nucleation score of -0.331 ± 0.28.

Consider SSMYDSCSLRCLGQVVR, for which the amyloid nucleation score is 0.711 ± 0.19.

The substance RGLYFNALSR returned an amyloid nucleation score of -0.167 ± 0.43.

MNFSYLWVYGNGL yielded an amyloid nucleation score of -0.629 ± 0.63.

In turn, WWVGCRACLPWDASSGKLLG yielded an amyloid nucleation score of 0.139 ± 0.34.

Substance TKLSPFNIGLRCRYHNLALN yielded an amyloid nucleation score of -1.52 ± 0.45.

Regarding PLWLCGGFQQWASGCRSVGL, the amyloid nucleation score is -1.06 ± 0.49.

GRFRLVMVFCAGNGNAGGER yielded an amyloid nucleation score of 1.52 ± 0.52.

In the case of QYLFIYFLALS, the amyloid nucleation score was -1.27 ± 0.53.

SVLLEGFLSYPDLSTNLIHV registered an amyloid nucleation score of -0.416 ± 0.81.

Regarding RYLVVQLRMGLYLFAFKDPD, the amyloid nucleation score was -0.686 ± 0.42.

SNWLM returned an amyloid nucleation score of 2.06 ± 0.53.

Substance GNFLFCTVDRHLTGSCS gave an amyloid nucleation score of 0.589 ± 0.47.

Substance DVVPSSGFVFMIRTDTLSHN returned an amyloid nucleation score of -0.265 ± 1.2.

Consider YHTTFSNVPFKGHARNAQRG, for which the amyloid nucleation score amounted to 0.172 ± 0.66.

Regarding GIPYSVDGYVLVDVSITTIA, the amyloid nucleation score result was “inactive”.

Substance QSRSL came in with an amyloid nucleation score of 0.703 ± 0.66.

Take MRNKKRPSRLVIGRLGNGFS: the amyloid nucleation score was -0.079 ± 0.84.

The substance SHNEG yielded an amyloid nucleation score of 1.34 ± 0.41.

In turn, GGLILYKKNREFSSLQFSCV gave an amyloid nucleation score of -0.523 ± 0.46.

Regarding FLATYLMEVYMMDSWNF, the amyloid nucleation score is -1.65 ± 1.4.

For the substance WFGSYWSIVVTTVRVIV, the amyloid nucleation score entry was “inactive”.

Substance ITKLIVSFQGFFV gave an amyloid nucleation score of 4.24 ± 0.12.

In the case of VMGNTDVVSDVSWVKCQKLK, the amyloid nucleation score came to 0.328 ± 0.32.

Consider ETHGYFVYVFVCGRWAGMK, for which the amyloid nucleation score is -0.114 ± 0.28.

With KGRSNLIADFGDLFGGLYTY, the amyloid nucleation score is -0.57 ± 0.37.

Take ESRLLYSFRWVGERAVPSAN: the amyloid nucleation score was found to be 0.4 ± 0.58.

In the case of KKDTDRSIVFVSLYSPDSKA, the amyloid nucleation score was -0.064 ± 0.5.

Turning to RMAPMMDP, the amyloid nucleation score was -0.227 ± 1.1.

In turn, RLPLMNWFTAMA came in with an amyloid nucleation score of 0.037 ± 0.42.

Consider TFRCKSCDLLYHRLENWSDW, for which the amyloid nucleation score was determined as 2.66 ± 0.12.

Regarding YLSHWQFAFIHLNANILL, the amyloid nucleation score turned out to be 0.596 ± 1.2.

SSRSGPPCACRTRKLACGMM: the amyloid nucleation score is 0.145 ± 0.47.

Substance IEGDFEFGVNVSRAARDMRV came in with an amyloid nucleation score of -0.856 ± 0.94.

In the case of LHLAAMM, the amyloid nucleation score was -0.344 ± 1.1.

Consider MRFMPVVWCRRMQESLGHST, for which the amyloid nucleation score is -0.026 ± 0.37.

As for SYNGCRRFNRCDRVCRNSNT, the amyloid nucleation score turned out to be 2.35 ± 0.095.

For RCRYVRLETSLC, the amyloid nucleation score was -0.083 ± 0.47.

In turn, KGICRGRSLSVPESWAPFR displayed an amyloid nucleation score of 0.133 ± 0.31.

In turn, IMYWITGTIMCY registered an amyloid nucleation score of 0.037 ± 0.16.

IICKVCLCVAPM yielded an amyloid nucleation score of 2.81 ± 0.19.

CLYPVLQVPMCGNMAERQGV came in with an amyloid nucleation score of 0.074 ± 0.69.

In the case of IGYRYQSMLGCEGGRWWWVV, the amyloid nucleation score came out at 0.45 ± 0.58.

The substance DLNLFDRNHVELRMIVD registered an amyloid nucleation score of 0.726 ± 0.65.

Substance QVNDIGP came in with an amyloid nucleation score of -0.341 ± 0.22.

Substance LQVKNVYGACFVCAMMVAWE showed an amyloid nucleation score of 5.18 ± 0.09.

For the substance SPRSLMKGVITTHIIG, the amyloid nucleation score is 0.917 ± 0.4.

The substance PYRPLSGRHRVLTQYGKLVG showed an amyloid nucleation score of 0.112 ± 0.81.

As to YVWKMIHVYGMTLSDFTFKV, the amyloid nucleation score worked out at 5.19 ± 0.053.

For RLLFITYSMVSKYNKCLIRG, the amyloid nucleation score was found to be 0.048 ± 0.74.

With MTRLINYCNGYNAKVVNWCF, the amyloid nucleation score was determined as 0.7 ± 0.97.

Substance VIGVGKMLGNNHYPLSDQGL gave an amyloid nucleation score of -0.05 ± 0.26.

Consider TIDERDSAHKSSVFKGLKEI, for which the amyloid nucleation score was -0.447 ± 0.33.

Consider ILSIYVSDAYKSMSETN, for which the amyloid nucleation score was determined as 1.14 ± 0.42.

LCSLTGLGYAMHVYVSLDVQ: the amyloid nucleation score amounted to 0.086 ± 0.5.

On to RSFLMPDE, for which the amyloid nucleation score turned out to be 0.307 ± 0.46.

FATYWVHDMAWRMSGVQMSV displayed an amyloid nucleation score of 0.307 ± 0.84.

SVRFSIETISWRGAYNRGTR gave an amyloid nucleation score of 1.98 ± 0.22.

On to TSSRCRYMFFLRHIFCKILK, for which the amyloid nucleation score entry is “inactive”.

As for EGTFLSGEHTFLNLGFSNRG, the amyloid nucleation score amounted to 0.019 ± 0.6.

The substance WNDRSGDVSLPCS came in with an amyloid nucleation score of 0.027 ± 0.61.

For RLLRYMRDIR, the amyloid nucleation score is -0.814 ± 0.57.

On to NKVLCFK, for which the amyloid nucleation score result was “inactive”.

As to QDLPAISLFTDVQSKPRTFP, the amyloid nucleation score came to 0.631 ± 0.95.

In turn, GVSMNSFLICDFDIWQIKTR displayed an amyloid nucleation score of -0.162 ± 0.22.

As for HVSACRNKIHLWSRTHLSGE, the amyloid nucleation score turned out to be 0.83 ± 0.5.

On to KCFAFRSLAHIASTCGWCLN, for which the amyloid nucleation score turned out to be 2.4 ± 0.31.

As to SKMILEV, the amyloid nucleation score entry was “inactive”.

Take NERSSEELAPLDTQWSMLRG: the amyloid nucleation score is -0.124 ± 0.69.

In turn, GICCYNFGRCKMRASPGLCG displayed an amyloid nucleation score of -0.999 ± 1.3.

As for NTIEGV, the amyloid nucleation score entry was “inactive”.

On to SCLMLGTGGETLRSRPPRKV, for which the amyloid nucleation score is -1.45 ± 1.1.

Regarding LLVRHEEKG, the amyloid nucleation score was determined as 0.263 ± 0.42.

As for TRNSDNVWKFEGVFHNLETW, the amyloid nucleation score worked out at 0.43 ± 0.48.

In the case of RQSLRRSYHHRWKRDVMR, the amyloid nucleation score result is “inactive”.

The substance HERDIQSSIGDWNKLSKPCN had an amyloid nucleation score of -0.418 ± 0.31.

With VIDEFLSMCRVNMMGGVCRV, the amyloid nucleation score was determined as 2.28 ± 0.35.

On to ILIEETFLS, for which the amyloid nucleation score entry is “inactive”.

Substance SFILCGISRSYQMLLMTRYL came in with an amyloid nucleation score of 6.09 ± 0.068.

With LVSRRSGHKYYGTTTDCCKN, the amyloid nucleation score result was “inactive”.

With FEGLVQL, the amyloid nucleation score result was “inactive”.

In the case of SCYVLVMYCYDMSFCDTLCE, the amyloid nucleation score came out at 0.024 ± 0.47.

The substance GLVNFTVVLTFV displayed an amyloid nucleation score of 2.82 ± 0.3.

As for ANDMMRKDCTFDTSVFMESV, the amyloid nucleation score was -0.379 ± 0.26.

For the substance SFCVFLMDMSRIGPETLSEW, the amyloid nucleation score was determined as 4.95 ± 0.076.

In turn, TSSSRSIDR registered an amyloid nucleation score of 0.16 ± 0.35.

The substance SGKGFFDKSKFLVVMRGRTR displayed an amyloid nucleation score of 0.06 ± 0.39.

STCSGISFVCHSTIIIKVTF gave an amyloid nucleation score of 3.92 ± 0.12.

NYMWSQPLLYFECGRDQWLA gave an amyloid nucleation score of 2.92 ± 0.11.

In turn, VRDYAGPFSFPYRSLRSEWQ came in with an amyloid nucleation score of 0.193 ± 0.56.

YTQSWQ: the amyloid nucleation score was -0.309 ± 0.51.

For FQRTGQKMWNNKKCSGRQHD, the amyloid nucleation score was -0.648 ± 0.51.

Consider HFVCYNCWGYICTVCLTSRE, for which the amyloid nucleation score amounted to 8.228 ± 0.065.

WYASRTTSIEYTKVYKCGGP had an amyloid nucleation score of 0.599 ± 0.43.
